Experiment [1] concerns the target serum-derived MBL-associated serine proteases (MASPs) (human (endogenous in normal human serum)). The experiment is described as follows: ELISA; normal human serum diluted 1:100 in veronal buffer saline bound to mannan-coated plate (37°C, 2 h), washed; rLdISP1/rLdISP2 0-50 µM added, 37°C, 2 h; bound ISP detected with anti-ISP1 or anti-ISP2 antibody. (In general: In an ELISA, binding on a coated surface is turned into a signal by an enzyme label.)

The target in experiment [2] is MBL-associated serine protease 2 (MASP2), serum-derived (human (endogenous in normal human serum)).
In experiment [3] the target is C1 complex (C1qr2s2) (human) (UniProt P02745). The experiment is described as follows: ELISA; C1 complex at 100 µg/ml bound to human IgM-coated plate (37°C, 2 h); rLdISP1/rLdISP2 0-50 µM added, 37°C, 2 h; bound ISP detected with anti-ISP1 or anti-ISP2 antibody; Kd taken as the free ligand at half saturation.
The target of experiment [4] is MBL-associated serine protease 2 (MASP2), serum-derived (human (endogenous in normal human serum)). The source holds these as a separate data set.
Experiment [5] shares this target. This is another data set of the same source.
Experiment [6] addresses C1 complex (C1qr2s2) (human) (UniProt P02745). The experiment is described as follows: ELISA; C1 complex at 50 µg/ml bound to human IgM-coated plate (37°C, 2 h); rLdISP1/rLdISP2 0-50 µM added, 37°C, 2 h; bound ISP detected with anti-ISP1 or anti-ISP2 antibody; Kd taken as the free ligand at half saturation.
Experiment [7] has the same target. The experiment is described as follows: ELISA; C1 complex at 6.25 µg/ml bound to human IgM-coated plate (37°C, 2 h); rLdISP1/rLdISP2 0-50 µM added, 37°C, 2 h; bound ISP detected with anti-ISP1 or anti-ISP2 antibody; Kd taken as the free ligand at half saturation.
Experiment [8] has as its target serum-derived MBL-associated serine proteases (MASPs) (human (endogenous in normal human serum)). The experiment is described as follows: ELISA; normal human serum diluted 1:10 in veronal buffer saline bound to mannan-coated plate (37°C, 2 h), washed; rLdISP1/rLdISP2 0-50 µM added, 37°C, 2 h; bound ISP detected with anti-ISP1 or anti-ISP2 antibody.
In experiment [9] the target is C1 complex (C1qr2s2) (human) (UniProt P02745). The experiment is described as follows: ELISA; C1 complex at 12.5 µg/ml bound to human IgM-coated plate (37°C, 2 h); rLdISP1/rLdISP2 0-50 µM added, 37°C, 2 h; bound ISP detected with anti-ISP1 or anti-ISP2 antibody; Kd taken as the free ligand at half saturation.
The target of experiment [10] is neutrophil elastase (NE) from human leukocytes (human) (UniProt P08246).
Chain of neutrophil elastase (NE) from human leukocytes (human) (P08246 30-267): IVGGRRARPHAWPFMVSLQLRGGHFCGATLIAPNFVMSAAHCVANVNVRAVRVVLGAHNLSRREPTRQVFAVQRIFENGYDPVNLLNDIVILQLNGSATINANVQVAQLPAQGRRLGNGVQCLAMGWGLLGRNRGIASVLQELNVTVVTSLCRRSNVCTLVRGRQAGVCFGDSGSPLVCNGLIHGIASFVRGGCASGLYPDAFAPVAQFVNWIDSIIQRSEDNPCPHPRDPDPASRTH
Experiment [11] has as its target serum-derived MBL-associated serine proteases (MASPs) (human (endogenous in normal human serum)). The experiment is described as follows: ELISA; normal human serum diluted 1:50 in veronal buffer saline bound to mannan-coated plate (37°C, 2 h), washed; rLdISP1/rLdISP2 0-50 µM added, 37°C, 2 h; bound ISP detected with anti-ISP1 or anti-ISP2 antibody.
Experiment [12] deals with C1 complex (C1qr2s2) (human) (UniProt P02745). The experiment is described as follows: ELISA; C1 complex at 100 µg/ml bound to human IgM-coated plate (37°C, 2 h); rLdISP1/rLdISP2 0-50 µM added, 37°C, 2 h; bound ISP detected with anti-ISP1 or anti-ISP2 antibody; Kd taken as the free ligand at half saturation. The source holds these as a separate data set.
Experiment [13] shares this target. The experiment is described as follows: ELISA; C1 complex at 25 µg/ml bound to human IgM-coated plate (37°C, 2 h); rLdISP1/rLdISP2 0-50 µM added, 37°C, 2 h; bound ISP detected with anti-ISP1 or anti-ISP2 antibody; Kd taken as the free ligand at half saturation.
The target in experiment [14] is MBL-associated serine protease 2 (MASP2), serum-derived (human (endogenous in normal human serum)). The source holds these as a separate data set.

The Kd is the free concentration of one partner at which half of the binding sites on the other are occupied at equilibrium, for simple one-to-one binding. A lower Kd goes with a tighter complex.

As to “recombinant L. donovani inhibitor of serine peptidases 2 (natural protein)”, the Ka in experiment [1] was determined as 330000 M⁻¹; in experiment [3], 760000 M⁻¹; in experiment [6], 500000 M⁻¹; in [7], 280000 M⁻¹; in experiment [8], 830000 M⁻¹; in experiment [9], 310000 M⁻¹. For the same substance, the results for the Ka in [11] and in experiment [13] were 520000 M⁻¹ and 350000 M⁻¹, respectively. Further, the dissociation constant (Kd) in [1] is 3 µM; in [3], 1.3 µM; in experiment [6] it was 2 µM; in [7] it was 3.5 µM; in experiment [8], 1.2 µM; in [9], 3.2 µM. Further, the figures for the Kd in experiment [11], in experiment [12] and in experiment [13] were 1.9 µM, 1.6 µM and 3 µM, respectively. This substance also yielded a C4b formation (C4 cleavage by serum-derived MASPs on mannan plate, sandwich ELISA), fold decrease against control at 10 and 50 µM rLdISP2 (~2.1, ~2.9-fold) in experiment [2] of 2.9 fold. Further, the MAC (C5b-9) formation on promastigotes via the lectin pathway, fold decrease against active LPSS at 10 and 50 µM rLdISP2 (~1.5, ~2.3-fold) in experiment [4] was found to be 2.3 fold. The complement-mediated lysis of promastigotes via the lectin pathway, fold reduction at 10 and 50 µM rLdISP2 (~1.8, ~2.5-fold) in experiment [4] amounted to 2.5 fold. For the same substance, the C3 convertase (C3c) formation by all complement pathways in human serum with promastigotes, fold reduction at 10 and 50 µM rLdISP2 (~1.5, ~2.5-fold) in experiment [5] came out at 2.5 fold. This substance came in with a C3 convertase (C3c) formation by the lectin pathway (lectin pathway-specific serum), fold reduction at 10 and 50 µM rLdISP2 (~2, ~4-fold) in experiment [5] of 4 fold. Also, the C5 convertase (C5c) formation by all three pathways, fold reduction at 10 and 50 µM rLdISP2 (~1.5, ~2.9-fold) in [5] is 2.9 fold. Besides, the C5 convertase (C5c) formation by the lectin pathway, fold reduction at 10 and 50 µM rLdISP2 (~1.4, ~3.2-fold) in experiment [5] turned out to be 3.2 fold. Further, the C5aR expression (western blot) in macrophages treated with NE pre-incubated with 10 µM rLdISP2, fold increase against control in [10] turned out to be 2.5 fold. This substance registered an enzyme activity of NE (50 nM; substrate N-methoxysuccinyl-Ala-Ala-Pro-Val-AMC), reduction at 0.1, 1 and 10 µM rLdISP2 (~49, ~60, ~82%) in experiment [10] of 82%. For the same substance, in [14], the enzyme activity of serum-derived MASP2 (substrate Z-L-Lys-SBzl with DTNB), reduction against untreated serum at 5, 10 and 50 µM rLdISP2 (~30, ~44, ~60%) was 60%.

For the substance “recombinant Leishmania donovani inhibitor of serine peptidases 1 (natural protein)”, the Ka in [1] was 310000 M⁻¹; in experiment [8] it was 710000 M⁻¹; in experiment [11] it was 450000 M⁻¹. Besides, the figures for the Kd in experiment [1], in [8] and in experiment [11] were 3.2 µM, 1.4 µM and 2.2 µM, respectively. This substance also came in with an enzyme activity of NE (50 nM; substrate N-methoxysuccinyl-Ala-Ala-Pro-Val-AMC), inhibition at 10 µM rLdISP1 in [10] of 27%.

(Values after article PMC5796892.)
